From patent US20120180150A1 (published 2012)

Target: T1, mouse IP3R1 full length with C-terminal GFP (mouse, UniProt P11881 1-2749)
T1 construct: also called IP3R1-GFP; IP3R-GFP protein; not shown: C-terminal GFP of the pEGFP-N1 vector, with any linker from the cloning site
Assay: HA-matrix co-immunoprecipitation from HEK 293 cells, anti-GFP Western blot
Experimental: Into HEK 293 cells, a full length IP3R1-GFP expression plasmid and each of the KRAP full length, the deletion mutants, or the point-mutant expression plasmids were introduced together with lipofectamine LTX (Invitrogen), respectively, and the resulting cells were incubated for 24 hours. They were then homogenized in an extracting buffer (50 mM Tris-HCl, pH7.5, 140 mM NaCl, 0.5% NP40, 0.25M NDSB-201 (Calbiochem), and protease inhibitors (Complete EDTA-free, Roche)), and the homogenized mixture was centrifuged at 15,000 rpm for 30 minutes. The resulting supernatant was then subjected to immunoprecipitation with HA matrix (Roche) to precipitate the IP3R-GFP protein binding to the KRAP protein, and the precipitated IP3R-GFP protein was detected by Western blots using a rabbit polyclonal antibody (Clonetech) as an anti-GFP antibody. In the experiment using HCT 116 cells, the presence or absence of co-precipitation of the endogenous IP3R protein was investigated without transfection of the IP3R-GFP protein using a mouse monoclonal antibody (BD Transduction Laboratory) as an anti-IP3R3 antibody.

T1 sequence (P11881 whole entry S1044R/E1045K): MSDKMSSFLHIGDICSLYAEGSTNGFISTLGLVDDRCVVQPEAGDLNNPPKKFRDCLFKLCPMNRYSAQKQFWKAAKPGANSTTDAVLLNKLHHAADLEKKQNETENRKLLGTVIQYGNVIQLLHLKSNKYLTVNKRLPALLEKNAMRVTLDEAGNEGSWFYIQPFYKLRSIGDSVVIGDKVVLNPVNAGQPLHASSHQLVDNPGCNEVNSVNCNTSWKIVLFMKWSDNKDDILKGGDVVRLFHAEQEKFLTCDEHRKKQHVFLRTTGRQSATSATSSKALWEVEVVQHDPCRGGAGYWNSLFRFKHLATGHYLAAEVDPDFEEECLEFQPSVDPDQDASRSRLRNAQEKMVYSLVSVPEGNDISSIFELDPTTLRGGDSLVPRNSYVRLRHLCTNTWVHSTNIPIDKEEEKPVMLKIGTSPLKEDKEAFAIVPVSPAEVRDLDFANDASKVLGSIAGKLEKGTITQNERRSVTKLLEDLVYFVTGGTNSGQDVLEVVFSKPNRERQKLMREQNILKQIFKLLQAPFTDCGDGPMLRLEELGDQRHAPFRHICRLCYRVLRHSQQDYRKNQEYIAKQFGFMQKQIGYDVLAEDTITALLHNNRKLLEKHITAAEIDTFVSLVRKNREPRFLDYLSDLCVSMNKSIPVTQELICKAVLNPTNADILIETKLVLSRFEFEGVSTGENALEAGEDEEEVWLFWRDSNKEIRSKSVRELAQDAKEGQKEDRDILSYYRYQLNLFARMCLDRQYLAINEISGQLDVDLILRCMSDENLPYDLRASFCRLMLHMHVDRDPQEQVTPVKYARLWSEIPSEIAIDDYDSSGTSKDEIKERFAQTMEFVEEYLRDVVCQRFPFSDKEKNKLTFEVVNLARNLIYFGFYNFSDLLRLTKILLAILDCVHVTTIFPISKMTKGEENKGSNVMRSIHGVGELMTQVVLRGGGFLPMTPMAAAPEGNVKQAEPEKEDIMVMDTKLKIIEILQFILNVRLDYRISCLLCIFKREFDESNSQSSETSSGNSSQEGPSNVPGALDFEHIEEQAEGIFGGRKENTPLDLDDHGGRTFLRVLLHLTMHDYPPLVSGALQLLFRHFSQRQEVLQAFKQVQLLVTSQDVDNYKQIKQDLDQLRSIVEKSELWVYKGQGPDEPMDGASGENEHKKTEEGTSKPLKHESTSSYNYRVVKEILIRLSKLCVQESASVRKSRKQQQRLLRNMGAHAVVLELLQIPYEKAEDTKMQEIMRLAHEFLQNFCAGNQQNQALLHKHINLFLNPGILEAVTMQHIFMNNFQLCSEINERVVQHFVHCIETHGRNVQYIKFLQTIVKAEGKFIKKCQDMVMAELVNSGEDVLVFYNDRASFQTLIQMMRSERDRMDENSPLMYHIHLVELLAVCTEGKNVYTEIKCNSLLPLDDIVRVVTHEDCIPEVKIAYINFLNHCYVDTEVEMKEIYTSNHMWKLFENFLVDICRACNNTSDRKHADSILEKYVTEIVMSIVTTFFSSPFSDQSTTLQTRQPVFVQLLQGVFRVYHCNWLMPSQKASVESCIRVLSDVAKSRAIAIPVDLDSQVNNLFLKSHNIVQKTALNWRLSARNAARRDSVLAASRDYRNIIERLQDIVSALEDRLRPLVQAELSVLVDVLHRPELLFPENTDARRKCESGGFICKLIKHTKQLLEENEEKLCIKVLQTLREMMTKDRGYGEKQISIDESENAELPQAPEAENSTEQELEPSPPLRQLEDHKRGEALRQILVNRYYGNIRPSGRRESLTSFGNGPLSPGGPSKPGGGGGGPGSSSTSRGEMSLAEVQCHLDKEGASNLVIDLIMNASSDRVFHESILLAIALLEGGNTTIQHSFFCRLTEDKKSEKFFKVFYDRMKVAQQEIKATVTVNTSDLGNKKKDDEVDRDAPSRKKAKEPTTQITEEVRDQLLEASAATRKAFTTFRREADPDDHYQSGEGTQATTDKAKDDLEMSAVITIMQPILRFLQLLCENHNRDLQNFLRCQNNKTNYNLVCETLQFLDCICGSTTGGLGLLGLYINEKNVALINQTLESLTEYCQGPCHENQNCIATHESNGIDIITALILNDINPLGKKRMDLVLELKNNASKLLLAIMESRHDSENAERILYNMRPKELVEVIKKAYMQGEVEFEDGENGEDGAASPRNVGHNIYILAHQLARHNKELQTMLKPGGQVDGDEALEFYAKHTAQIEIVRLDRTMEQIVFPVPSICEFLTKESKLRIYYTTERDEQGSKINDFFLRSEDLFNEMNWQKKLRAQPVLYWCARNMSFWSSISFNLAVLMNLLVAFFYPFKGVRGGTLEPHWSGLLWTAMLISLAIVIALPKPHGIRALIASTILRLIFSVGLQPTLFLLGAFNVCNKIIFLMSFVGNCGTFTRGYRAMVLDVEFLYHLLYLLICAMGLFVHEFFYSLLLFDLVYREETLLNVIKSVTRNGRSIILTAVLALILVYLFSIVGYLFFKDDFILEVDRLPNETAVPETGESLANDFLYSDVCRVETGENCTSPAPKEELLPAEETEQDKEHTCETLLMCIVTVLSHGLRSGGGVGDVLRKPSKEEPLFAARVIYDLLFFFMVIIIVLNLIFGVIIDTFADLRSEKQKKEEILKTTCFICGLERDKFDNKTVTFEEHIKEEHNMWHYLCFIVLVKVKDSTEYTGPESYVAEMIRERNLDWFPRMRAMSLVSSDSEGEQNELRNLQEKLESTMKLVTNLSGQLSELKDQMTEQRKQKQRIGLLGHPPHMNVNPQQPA

- binding result: no binding
B1: mouse KRAP deletion mutant composed of the coiled-coil region only (988-1252), N-terminal HA tag (other)
chain: HMTEEDRYEVDQLQGLRNSVRMELQDLEMQLEERLLGLDEQLRAVRVPSPFRPSALPGMCGSRSVDNLSCPSPLNVMEPVTELMREQSYLKSELGLGLGDMAYEIPPGESSESVFSQATSESSSVCSSPSHTNRRSRGLPGSKPRARLVARKKIFRASVALTPTAPSRTGSVQTPPDLESSEEAGGAEEASPVVGLASHVEEEPEDLSLMPAAEEMHRNVEQDELQQVIREIKESIVGEIRREIVSGLLAAVASSKAPGPKQDSH
notes: not shown: N-terminal HA tag of the pCMV-HA vector
